OD450 and fold reduction of binding against WT CTLA-4Fc data for one substance are collected here from patent US20190263889A1.

The target of assay [1] is CTLA-4Fc mutant protein M1 (human (murine residues substituted)). The assay is described as follows: ELISA; binder 10 ng/ml on coated target. A general note: ELISA stands for enzyme-linked immunosorbent assay.
Assay [2] has as its target CTLA-4Fc mutant protein M3 (human (murine residues substituted)). The assay is described as follows: ELISA; binder 10 ng/ml on coated target.
Assay [3] deals with CTLA-4Fc mutant protein M5 (human (murine residues substituted)). The assay is described as follows: ELISA; binder 10 ng/ml on coated target.
Assay [4] addresses CTLA-4Fc mutant protein M6 (human (murine residues substituted)). The assay is described as follows: ELISA; binder 10 ng/ml on coated target.
Assay [5] concerns the target CTLA-4Fc mutant protein M7 (human (murine residues substituted)). The assay is described as follows: ELISA; binder 10 ng/ml on coated target.
The target in assay [6] is CTLA-4Fc mutant protein M1 (human (murine residues substituted)). The assay is described as follows: ELISA; binder 0 (blank) on coated target.
Assay [7] has as its target CTLA-4Fc mutant protein M10 (human (murine residues substituted)). The assay is described as follows: ELISA; binder 0 (blank) on coated target.
Assay [8] deals with CTLA-4Fc mutant protein M11 (human (murine residues substituted)). The assay is described as follows: ELISA; binder 0 (blank) on coated target.
The target in assay [9] is CTLA-4Fc mutant protein M2 (human (murine residues substituted)). The assay is described as follows: ELISA; binder 0 (blank) on coated target.
Assay [10] addresses CTLA-4Fc mutant protein M3 (human (murine residues substituted)). The assay is described as follows: ELISA; binder 0 (blank) on coated target.
The target of assay [11] is CTLA-4Fc mutant protein M4 (human (murine residues substituted)). The assay is described as follows: ELISA; binder 0 (blank) on coated target.
The target in assay [12] is CTLA-4Fc mutant protein M5 (human (murine residues substituted)). The assay is described as follows: ELISA; binder 0 (blank) on coated target.
Assay [13] has as its target CTLA-4Fc mutant protein M6 (human (murine residues substituted)). The assay is described as follows: ELISA; binder 0 (blank) on coated target.
Assay [14] deals with CTLA-4Fc mutant protein M7 (human (murine residues substituted)). The assay is described as follows: ELISA; binder 0 (blank) on coated target.
Assay [15] deals with CTLA-4Fc mutant protein M8 (human (murine residues substituted)). The assay is described as follows: ELISA; binder 0 (blank) on coated target.
The target in assay [16] is CTLA-4Fc mutant protein M9 (human (murine residues substituted)). The assay is described as follows: ELISA; binder 0 (blank) on coated target.
Assay [17] deals with human IgG1-Fc control (human) [IgG part: P01857]. The assay is described as follows: ELISA; binder 0 (blank) on coated target.
In a further assay the target is mouse CTLA-4-Fc (mouse) (UniProt P09793). The assay is described as follows: ELISA; binder 0 (blank) on coated target.
Assay [18] addresses wild type human CTLA-4Fc fusion protein (abatacept) (human). The assay is described as follows: ELISA; binder 0 (blank) on coated target.
Assay [19] addresses CTLA-4Fc mutant protein M11 (human (murine residues substituted)). The assay is described as follows: ELISA, target coated 1 ug/mL, biotinylated binder.

Several values for one entry are separate records, joined by “and”; a condition that tells them apart may be missing. Equal values may be shown once.

Chain of CTLA-4Fc mutant protein M7 (human (murine residues substituted)) (chain, as listed by the source mutant): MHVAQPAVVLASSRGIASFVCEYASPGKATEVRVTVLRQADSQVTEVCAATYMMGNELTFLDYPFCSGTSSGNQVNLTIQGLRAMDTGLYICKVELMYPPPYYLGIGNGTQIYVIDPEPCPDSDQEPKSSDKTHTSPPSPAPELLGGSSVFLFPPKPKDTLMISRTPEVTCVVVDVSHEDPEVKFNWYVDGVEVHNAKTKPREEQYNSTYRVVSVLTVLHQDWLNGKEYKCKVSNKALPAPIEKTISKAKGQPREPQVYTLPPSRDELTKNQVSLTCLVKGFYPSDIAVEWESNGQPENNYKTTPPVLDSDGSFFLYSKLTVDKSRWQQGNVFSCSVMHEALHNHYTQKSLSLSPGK
Chain of CTLA-4Fc mutant protein M11 (human (murine residues substituted)) (chain, as listed by the source mutant): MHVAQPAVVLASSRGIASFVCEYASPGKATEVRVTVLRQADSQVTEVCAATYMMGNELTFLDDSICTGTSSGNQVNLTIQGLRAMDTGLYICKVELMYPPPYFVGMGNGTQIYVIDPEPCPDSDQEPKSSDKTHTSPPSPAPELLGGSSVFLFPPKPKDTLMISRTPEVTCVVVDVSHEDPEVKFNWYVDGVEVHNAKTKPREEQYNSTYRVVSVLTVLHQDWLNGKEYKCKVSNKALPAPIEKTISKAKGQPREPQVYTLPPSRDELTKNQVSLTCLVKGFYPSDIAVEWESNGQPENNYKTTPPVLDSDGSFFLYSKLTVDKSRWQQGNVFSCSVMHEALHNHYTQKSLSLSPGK
Chain of CTLA-4Fc mutant protein M6 (human (murine residues substituted)) (chain, as listed by the source mutant): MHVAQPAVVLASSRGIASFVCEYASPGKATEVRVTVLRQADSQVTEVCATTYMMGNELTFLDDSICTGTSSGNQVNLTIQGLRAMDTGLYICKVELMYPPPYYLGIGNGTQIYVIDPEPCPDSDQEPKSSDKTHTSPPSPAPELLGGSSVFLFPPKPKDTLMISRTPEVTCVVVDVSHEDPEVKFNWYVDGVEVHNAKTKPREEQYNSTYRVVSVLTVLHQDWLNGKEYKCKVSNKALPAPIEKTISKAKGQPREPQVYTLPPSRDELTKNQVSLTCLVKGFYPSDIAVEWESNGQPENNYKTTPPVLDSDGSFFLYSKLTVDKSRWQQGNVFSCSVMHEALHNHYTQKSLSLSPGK
Chain of CTLA-4Fc mutant protein M3 (human (murine residues substituted)) (chain, as listed by the source mutant): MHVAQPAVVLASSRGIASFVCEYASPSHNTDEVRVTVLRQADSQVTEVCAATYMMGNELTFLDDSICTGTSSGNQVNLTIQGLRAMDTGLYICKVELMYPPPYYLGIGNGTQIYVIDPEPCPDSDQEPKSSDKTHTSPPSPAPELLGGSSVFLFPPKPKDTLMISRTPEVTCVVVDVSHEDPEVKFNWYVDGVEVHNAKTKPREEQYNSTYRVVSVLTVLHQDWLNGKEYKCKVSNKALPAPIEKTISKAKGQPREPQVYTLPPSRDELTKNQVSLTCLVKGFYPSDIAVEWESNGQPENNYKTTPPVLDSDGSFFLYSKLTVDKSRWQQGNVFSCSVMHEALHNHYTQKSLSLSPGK
Chain of CTLA-4Fc mutant protein M1 (human (murine residues substituted)) (chain, as listed by the source mutant): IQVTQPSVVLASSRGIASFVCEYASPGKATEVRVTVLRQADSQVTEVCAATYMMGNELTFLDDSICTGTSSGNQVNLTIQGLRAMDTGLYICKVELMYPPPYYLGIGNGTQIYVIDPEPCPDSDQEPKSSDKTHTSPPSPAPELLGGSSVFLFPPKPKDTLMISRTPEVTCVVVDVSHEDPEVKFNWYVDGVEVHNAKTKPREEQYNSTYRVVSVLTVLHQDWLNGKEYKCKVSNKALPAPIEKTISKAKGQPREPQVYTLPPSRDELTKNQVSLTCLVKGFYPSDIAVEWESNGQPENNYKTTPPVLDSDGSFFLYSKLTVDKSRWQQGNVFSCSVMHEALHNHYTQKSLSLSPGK
Chain of CTLA-4Fc mutant protein M5 (human (murine residues substituted)) (chain, as listed by the source mutant): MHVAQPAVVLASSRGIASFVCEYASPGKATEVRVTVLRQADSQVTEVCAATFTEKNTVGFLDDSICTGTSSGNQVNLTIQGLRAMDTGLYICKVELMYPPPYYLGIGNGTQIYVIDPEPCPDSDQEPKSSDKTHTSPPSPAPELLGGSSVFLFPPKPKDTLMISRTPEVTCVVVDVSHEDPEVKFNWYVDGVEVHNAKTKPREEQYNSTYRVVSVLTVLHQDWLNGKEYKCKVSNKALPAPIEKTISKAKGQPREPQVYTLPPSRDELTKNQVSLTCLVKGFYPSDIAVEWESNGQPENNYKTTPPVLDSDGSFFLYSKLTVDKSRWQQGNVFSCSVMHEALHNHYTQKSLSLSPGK
Chain of wild type human CTLA-4Fc fusion protein (abatacept) (human) (chain, as listed by the source limits assumed): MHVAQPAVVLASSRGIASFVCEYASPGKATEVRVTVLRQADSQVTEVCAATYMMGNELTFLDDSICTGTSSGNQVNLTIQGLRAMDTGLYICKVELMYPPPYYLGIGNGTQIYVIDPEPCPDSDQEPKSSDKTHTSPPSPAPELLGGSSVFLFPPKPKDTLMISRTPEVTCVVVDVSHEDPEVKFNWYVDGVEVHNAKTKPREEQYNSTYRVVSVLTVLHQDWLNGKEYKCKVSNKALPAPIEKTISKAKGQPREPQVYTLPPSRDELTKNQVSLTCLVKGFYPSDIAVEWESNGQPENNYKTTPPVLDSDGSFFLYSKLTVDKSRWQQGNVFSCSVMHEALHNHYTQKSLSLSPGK
Chain of CTLA-4Fc mutant protein M2 (human (murine residues substituted)) (chain, as listed by the source mutant): as the sequence (chain, as listed by the source limits assumed) above, with R14H, I16L, V20P counted along it
Chain of CTLA-4Fc mutant protein M8 (human (murine residues substituted)) (chain, as listed by the source mutant): as the sequence (chain, as listed by the source limits assumed) above, with S70F, S71N, G72E, N73S, Q74R counted along it
Chain of CTLA-4Fc mutant protein M9 (human (murine residues substituted)) (chain, as listed by the source mutant): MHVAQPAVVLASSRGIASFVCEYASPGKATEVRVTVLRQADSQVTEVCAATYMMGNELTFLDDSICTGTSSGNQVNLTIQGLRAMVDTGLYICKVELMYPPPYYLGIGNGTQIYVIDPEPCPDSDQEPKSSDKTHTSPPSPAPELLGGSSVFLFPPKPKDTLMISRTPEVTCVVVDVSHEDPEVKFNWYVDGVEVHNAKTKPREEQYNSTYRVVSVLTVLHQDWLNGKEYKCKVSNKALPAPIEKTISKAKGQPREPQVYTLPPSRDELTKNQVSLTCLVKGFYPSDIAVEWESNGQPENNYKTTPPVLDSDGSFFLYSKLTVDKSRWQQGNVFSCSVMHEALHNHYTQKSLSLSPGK
Chain of CTLA-4Fc mutant protein M10 (human (murine residues substituted)) (chain, as listed by the source mutant): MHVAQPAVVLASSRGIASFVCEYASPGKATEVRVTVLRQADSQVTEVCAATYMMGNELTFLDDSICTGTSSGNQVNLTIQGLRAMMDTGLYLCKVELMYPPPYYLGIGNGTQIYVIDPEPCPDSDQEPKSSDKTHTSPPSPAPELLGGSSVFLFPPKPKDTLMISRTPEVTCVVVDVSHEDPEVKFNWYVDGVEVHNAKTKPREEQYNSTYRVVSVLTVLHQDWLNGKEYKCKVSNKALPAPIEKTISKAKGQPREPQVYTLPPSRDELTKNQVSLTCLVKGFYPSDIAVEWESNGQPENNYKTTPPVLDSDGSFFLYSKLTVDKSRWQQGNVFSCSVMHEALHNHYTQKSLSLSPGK
Chain of CTLA-4Fc mutant protein M4 (human (murine residues substituted)) (chain, as listed by the source mutant): as the sequence (chain, as listed by the source limits assumed) above, with Q39T, A40N, S42Q, Q43M counted along it
Chain of mouse CTLA-4-Fc (mouse) (P09793 36-161 limits assumed): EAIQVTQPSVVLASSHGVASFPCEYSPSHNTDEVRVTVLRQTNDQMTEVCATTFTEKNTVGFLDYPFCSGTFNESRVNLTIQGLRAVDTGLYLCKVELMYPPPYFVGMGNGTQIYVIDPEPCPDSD

For the substance “chimeric L3D10 anti-human CTLA-4 antibody”, the OD450 is 2.47 OD450 and 2.43 OD450 in [1]; 0.62 OD450 and 0.587 OD450 in [2]; 1.54 OD450 and 1.37 OD450 in [3]; 1.03 OD450 and 0.976 OD450 in [4]; 0.714 OD450 and 0.738 OD450 in assay [5]; 0.222 OD450 in [6]. Moreover, the OD450 in [7] was 0.215 OD450 and 0.114 OD450; in assay [8], 0.171 OD450 and 0.155 OD450; in assay [9] it was 0.377 OD450 and 0.538 OD450; in assay [10], 0.183 OD450 and 0.167 OD450; in assay [11] it was 0.22 OD450 and 0.18 OD450; in [12], 0.177 OD450 and 0.229 OD450. The OD450 in [13] was 0.183 OD450 and 0.177 OD450; in assay [14], 0.186 OD450 and 0.142 OD450; in [15], 0.368 OD450 and 0.217 OD450; in assay [16], 0.15 OD450 and 0.293 OD450; in assay [17], 0.198 OD450 and 0.184 OD450; in the assay with mouse CTLA-4-Fc (mouse), 0.19 OD450 and 0.189 OD450. For the same substance, the OD450 in [18] was 0.18 OD450 and 0.177 OD450. This substance returned a fold reduction of binding against WT CTLA-4Fc in assay [19] of 100 fold.
